Source: patent US8138307 (CEDARS SINAI MEDICAL CENTER, dated 2012)

Tests used:
[1] = biological target: T1, GAL4 activation domain-MP36a fusion (pGAD10 clone MP36a) (UniProt P04386 768-881); assay: yeast two-hybrid liquid assay (β-galactosidase)
T1 construct: Prey clone from a human brain cDNA library

[2] = biological target: T2, GAL4 activation domain-MP23a fusion (pGAD10 clone MP23a, partial synapsin-like protein) (human); assay: yeast two-hybrid liquid assay (β-galactosidase)
T2 construct: Partial clone; also called SLP (MP23a)
T2 chain: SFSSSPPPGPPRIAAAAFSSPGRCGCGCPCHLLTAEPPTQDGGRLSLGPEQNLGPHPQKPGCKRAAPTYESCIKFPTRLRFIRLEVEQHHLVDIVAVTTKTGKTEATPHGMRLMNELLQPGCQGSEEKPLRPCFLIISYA

fold β-galactosidase activity over negative control vector pGBT9 [1]: ~20 fold
fold β-galactosidase activity over negative control vector pGBT9 [2]: ~30 fold
B1: GAL4 binding domain-parkin(1-465) fusion encoded by pGBT9-parkin(1-465) (other, UniProt P04386 1-147, looked up)
chain: MKLLSSIEQACDICRLKKLKCSKEKPKCAKCLKNNWECRYSPKTKRSPLTRAHLTEVESRLERLEQLFLLIFPREDLDMILKMDSLQDIKALLTGLFVQDNVNKDAVTDRLASVETDMPLTLRQHRISATSSSEESSNKGQRQLTVSMIVFVRFNSSHGFPVEVDSDTSIFQLKEVVAKRQGVPADQLRVIFAGKELRNDWTVQNCDLDQQSIVHIVQRPWRKGQEMNATGGDDPRNAAGGCEREPQSLTRVDLSSSVLPGDSVGLAVILHTDSRKDSPPAGSPAGRSIYNSFYVYCKGPCQRVQPGKLRVQCSTCRQATLTLTQGPSCWDDVLIPNRMSGECQSPHCPGTSAEFFFKCGAHPTSDKETSVALHLIATNSRNITCITCTDVRSPVLVFQCNSRHVICLDCFHLYCVTRLNDRQFVHDPQLGYSLPCVAGCPNSLIKELHHFRILGEEQYNRYQQYGAEECVLQMGGVLCPRPGCGAGLLPEPDQRKVTCEGGNGLGCGFAFCRECKEAYHEGECSAVFEASGTTTQAYRVDERAAEQARWEAASKETIKKTTKPCPRCHVPVEKNGGCMHMKCPQPQCRLEWCWNCGCEWNRVCMGDHWFDV
notes: Yeast two-hybrid bait expressed in yeast strain Y190; also called parkin bait
